Patent publication US20250129146A1, “COMBINED CANCER THERAPY WITH AN EPITHELIAL CELL ADHESION MOLECULE (EPCAM) INHIBITOR AND A WNT INHIBITOR” (ACADEMIA SINICA, priority 2021, published 2025)

Target: T1, recombinant FZD6 (Homo sapiens, UniProt O60353)
T1 construct: purchased Proteintech
T1 sequence (O60353 19-706): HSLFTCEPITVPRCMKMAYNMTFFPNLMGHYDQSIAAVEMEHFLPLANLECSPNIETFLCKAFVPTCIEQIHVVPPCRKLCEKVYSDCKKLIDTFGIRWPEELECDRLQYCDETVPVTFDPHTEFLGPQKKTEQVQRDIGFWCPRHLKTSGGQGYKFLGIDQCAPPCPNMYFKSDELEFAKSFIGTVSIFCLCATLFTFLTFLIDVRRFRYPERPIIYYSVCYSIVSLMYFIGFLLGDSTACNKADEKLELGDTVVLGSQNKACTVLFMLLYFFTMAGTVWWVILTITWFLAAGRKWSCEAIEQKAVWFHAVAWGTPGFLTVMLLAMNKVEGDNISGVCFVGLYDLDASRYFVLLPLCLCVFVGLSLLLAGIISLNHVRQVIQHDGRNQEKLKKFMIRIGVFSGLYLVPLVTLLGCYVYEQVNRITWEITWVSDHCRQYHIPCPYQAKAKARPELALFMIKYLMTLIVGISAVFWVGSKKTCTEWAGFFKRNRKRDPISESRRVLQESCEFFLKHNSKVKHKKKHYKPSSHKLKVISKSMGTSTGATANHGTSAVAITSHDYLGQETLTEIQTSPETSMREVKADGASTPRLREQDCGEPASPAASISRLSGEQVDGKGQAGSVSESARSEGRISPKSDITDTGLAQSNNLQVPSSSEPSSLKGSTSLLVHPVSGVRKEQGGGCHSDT
Assay: ELISA of EpEX binding to Wnt receptor-coated plates (FZD6)
Conditions: EpEX-His alone, 2 hours; optical density at 450 nm
Protocol: For ELISA, wells (at least 6 wells per single protein) were coated with recombinant FZD6 (Proteintech), recombinant FZD7 (Proteintech), recombinant LRP5 (Proteintech), recombinant LRP6 (Proteintech) overnight at 4° C. The wells were then blocked with 1% BSA and treated with EpEX-his (Produced in house by Expi293 Expression System) for 2 hours. Otherwise, EpEX-His was incubated with EpAb2-6 overnight and the complex was used to treat the protein-coated plates for 2 hours. Further anti-His antibody (abeam) was used and TMB was performed to record optical density at 450 nm.

B1: EpEX: extracellular domain of EpCAM, produced in house by Expi293 Expression System (protein)
chain: QEECVCENYKLAVNCFVNNNRQCQCTSVGAQNTVICSKLAAKCLVMKAEMNGSKLGRRAKPEGALQNNDGLYDPDCDESGLFKAKQCNGTSMCWCVNTAGVRRTDKDTEITCSERVRTYWIIIELKHKAREKPYDSKSLRTALQKEITTRYQLDPKFITSILYENNVITIDLVQNSSQKTQNDVDIADVAYYFEKDVKGESLFHSKKMDLTVNGEQLDLDPGQTLIYYVDEKAPEFSMQGLKAGVIAVIVVVVIAVVAGIVVLVISRKKRMAKYEKAEIKEMGEMHRELNA
  EpEX binding to FZD6: bind with all receptor proteins
